T1: human Elongation Factor Like-1 (EFL1) (human, UniProt Q7Z2Z2 1-1120)
T1 construct: human EFL1, GTPase, said to comprise 1120 residues; the expressed protein is fused to a TEV recognition site and a hexahistidine tag at the C-terminus; also called human EFL1; GTPase Elongation Factor Like-1; source: S. cerevisiae BCY123 (pRS426 backbone, GAL1/10 promoter), purified
T1 sequence: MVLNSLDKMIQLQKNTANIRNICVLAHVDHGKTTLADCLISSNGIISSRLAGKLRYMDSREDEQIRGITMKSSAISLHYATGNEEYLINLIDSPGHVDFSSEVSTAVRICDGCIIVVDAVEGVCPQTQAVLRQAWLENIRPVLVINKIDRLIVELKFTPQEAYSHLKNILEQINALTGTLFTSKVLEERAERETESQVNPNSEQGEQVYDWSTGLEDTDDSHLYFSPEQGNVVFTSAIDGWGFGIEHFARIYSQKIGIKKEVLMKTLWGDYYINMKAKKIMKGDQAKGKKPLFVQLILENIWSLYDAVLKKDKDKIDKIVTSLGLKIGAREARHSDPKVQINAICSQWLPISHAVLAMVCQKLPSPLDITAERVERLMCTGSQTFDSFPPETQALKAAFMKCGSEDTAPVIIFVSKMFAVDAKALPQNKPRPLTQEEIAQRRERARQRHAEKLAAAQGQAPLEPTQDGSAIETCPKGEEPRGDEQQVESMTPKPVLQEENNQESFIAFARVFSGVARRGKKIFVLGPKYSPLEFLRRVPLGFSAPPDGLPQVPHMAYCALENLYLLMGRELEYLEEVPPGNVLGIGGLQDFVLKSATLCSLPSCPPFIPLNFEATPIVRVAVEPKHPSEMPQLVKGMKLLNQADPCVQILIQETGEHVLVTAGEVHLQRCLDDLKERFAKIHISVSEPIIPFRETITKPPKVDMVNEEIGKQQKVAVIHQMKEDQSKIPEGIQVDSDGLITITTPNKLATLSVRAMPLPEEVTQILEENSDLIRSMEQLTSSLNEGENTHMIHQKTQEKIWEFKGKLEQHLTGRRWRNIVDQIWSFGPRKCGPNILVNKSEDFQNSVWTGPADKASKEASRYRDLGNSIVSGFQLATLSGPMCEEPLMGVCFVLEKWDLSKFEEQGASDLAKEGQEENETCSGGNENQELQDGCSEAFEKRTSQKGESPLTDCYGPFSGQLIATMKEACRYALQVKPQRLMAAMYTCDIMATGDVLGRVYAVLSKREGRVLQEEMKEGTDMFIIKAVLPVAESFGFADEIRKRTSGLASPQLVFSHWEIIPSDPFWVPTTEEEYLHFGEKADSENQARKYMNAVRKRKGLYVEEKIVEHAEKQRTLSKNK

T2: yeast SBDS orthologue Sdo1 (recombinant, for SAXS) (yeast (S. cerevisiae), UniProt Q07953 1-250)
T2 construct: Sdo1, the yeast orthologue of SBDS; called the full-length Sdo1; source: E. coli C41 (pRSET plasmid), purified by conventional chromatographic techniques
T2 sequence (looked up): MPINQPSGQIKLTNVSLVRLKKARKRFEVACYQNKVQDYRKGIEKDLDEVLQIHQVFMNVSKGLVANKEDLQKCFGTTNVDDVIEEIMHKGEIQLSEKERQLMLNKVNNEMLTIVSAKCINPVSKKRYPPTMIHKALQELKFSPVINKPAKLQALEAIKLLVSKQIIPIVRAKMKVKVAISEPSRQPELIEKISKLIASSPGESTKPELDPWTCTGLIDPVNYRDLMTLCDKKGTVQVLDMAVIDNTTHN

B1: human SBDS domains 2-3 (residues 94-250) with C-terminal FlAsH tag, labelled with Lumio Green (domain or fragment, UniProt Q9Y3A5 94-250, looked up)
chain: QVSDKERHTQLEQMFRDIATIVADKCVNPETKRPYTVILIERAMKDIHYSVKTNKSTKQQALEVIKQLKEKMKIERAHMRLRFILPVNEGKKLKEKLKPLIKVIESEDYGQQLEIVCLIDPGCFREIDELIKKETKGKGSLEVLNLKDVEEGDEKFE
modifications: Lumio Green dye (4',5'-bis(1,3,2-dithioarsolan-2-yl) fluorescein) on the C-terminal FlAsH tag
notes: human SBDS, domains 2-3, residues 94-250; also called construct consisting of domains 2-3 of SBDS; source: E. coli C41 (pRSET plasmid), purified by conventional chromatographic techniques; not shown: FlAsH tag (Cys-Cys-Pro-Gly-Cys-Cys), C-terminal, kept
B2: human SBDS domain 2 (residues 94-175) with C-terminal FlAsH tag, labelled with Lumio Green (domain or fragment, UniProt Q9Y3A5 94-175, looked up)
chain: QVSDKERHTQLEQMFRDIATIVADKCVNPETKRPYTVILIERAMKDIHYSVKTNKSTKQQALEVIKQLKEKMKIERAHMRLR
modifications: Lumio Green dye (4',5'-bis(1,3,2-dithioarsolan-2-yl) fluorescein) on the C-terminal FlAsH tag
notes: human SBDS, domain 2, residues 94-175; also called domain 2 of SBDS; source: E. coli C41 (pRSET plasmid), purified by conventional chromatographic techniques; not shown: FlAsH tag (Cys-Cys-Pro-Gly-Cys-Cys), C-terminal, kept
B3: human SBDS domain 1 (residues 1-94) with C-terminal FlAsH tag, labelled with Lumio Green (domain or fragment, UniProt Q9Y3A5 1-94, looked up)
chain: MSIFTPTNQIRLTNVAVVRMKRAGKRFEIACYKNKVVGWRSGVEKDLDEVLQTHSVFVNVSKGQVAKKEDLISAFGTDDQTEICKQILTKGEVQ
modifications: Lumio Green dye (4',5'-bis(1,3,2-dithioarsolan-2-yl) fluorescein) on the C-terminal FlAsH tag
notes: human SBDS, domain 1, residues 1-94; also called domain 1 of SBDS; source: E. coli C41 (pRSET plasmid), purified by conventional chromatographic techniques; not shown: FlAsH tag (Cys-Cys-Pro-Gly-Cys-Cys), C-terminal, kept
B4: yeast EFL1 (recombinant, for SAXS) (enzyme, yeast (S. cerevisiae), UniProt P53893 1-1110, looked up)
chain: MPRVESETYKRLQNDPSCIRNICIVAHVDHGKTSLSDSLLASNGIISQRLAGKIRFLDARPDEQLRGITMESSAISLYFRVLRKQEGSDEPLVSEHLVNLIDSPGHIDFSSEVSAASRLCDGAVVLVDVVEGVCSQTVTVLRQCWTEKLKPILVLNKIDRLITELQLTPQEAYIHLSKVIEQVNSVIGSFFANERQLDDLFWREQLEKNENAEYIEKDDSGIYFNPTDNNVIFASAIDGWGFNIGQLAKFYEQKLGAKRENLQKVLWGDFYMDPKTKKIINNKGLKGRSLKPLFTSLILENIWKIYQNIITSRDSEMVEKIAKTLNIKLLARDLRSKDDKQLLRTIMGQWLPVSTAVLLTVIEKLPSPLESQTDRLNTILVSESDTAAMDPRLLKAMKTCDKEGPVSAYVSKMLSIPREELPVESKRIASSDELMERSRKAREEALNAAKHAGMVENMAMMDLNDNSKNTSDLYKRAKDTVMTPEVGEQTKPKPSRNNDVFCVVSEPSSALDLEFEYEGEDDSDSQDNFGLDFVPTDIDPNDPLSSMFEYEEEDPLLESIKQISEDVNDEVDDIFDEKEECLVAFARIYSGTLRVGQEISVLGPKYDPKCPEEHIETAIITHLYLFMGKELVPLDVCPSGNIVGIRGLAGKVLKSGTLIEKGVQGVNLAGVNFHFTPIVRVAVEPANPVEMSKLVRGLKLLDQADPCVHTYVENTGEHILCTAGELHLERCLKDLTERFAGIEITHSEPAIPYRETFLSASDMNPPQNSQLGRGVHELLLSQYKITFRTFPLSGKVTDFLSQHQNSIKNILKTSTSSMDPVIESTGSSFLDKKSLLVAFEEVINQEEKSRELLSGFKVKLAGFGPSRVGCNILLSQDNLLGSLFEGTPAAFEYSDSIKNGFQLAVSEGPLANEPVQGMCVLVESVHKMSQDEIESIEDPRYQQHIVDLSGRLITSTRDAIHEAFLDWSPRIMWAIYSCDIQTSVDVLGKVYAVILQRHGKIISEEMKEGTPFFQIEAHVPVVEAFGLSEDIRKRTSGAAQPQLVFSGFECIDLDPFWVPTTEEELEELGDTADRENIARKHMNAIRRRKGLFIEEKVVENAEKQRTLKKN
notes: yeast EFL1 (GTPase); the model's rigid parts run over residues 1-1110; source: S. cerevisiae BCY123 (pRS426 backbone, GAL1/10 promoter), purified

Legend:
[1] = molecular target: T1, human Elongation Factor Like-1 (EFL1); experiment: fluorescence polarisation; fluorescence anisotropy; 2 µL additions of 40-90 µM human EFL1 titrated into 300 µL of 0.1 µM Lumio Green-labelled human SBDS-FlAsH construct; 25 °C; 50 mM Tris-HCl pH 8, 300 mM NaCl, 5 mM β-mercaptoethanol; fitted to a single-site or a two different binding sites model; conditions: both partners purified
[2] = molecular target: T2, yeast SBDS orthologue Sdo1 …; experiment: SAXS coupled to on-line size exclusion chromatography; yeast Sdo1, EFL1 and the complex EFL1•Sdo1 at 10, 6.5 and 8 mg/mL injected onto a Shodex KW-403 column; 50 mM Tris pH 8.0, 10% glycerol, 300 mM NaCl, 5 mM MgCl2; conditions: both partners purified

Row | Binder | Kd [1] [µM] | stoichiometry N [2]
1 | B1 | 4.6 ± 0.3 | –
2 | B2 | 10.8 ± 0.9 | –
3 | B3 | 15.2 ± 0.72 | –
4 | B4 | – | 1
